Consider 7 molecules from article PMC3138243 (The Journal of Biological Chemistry, 2011).

One data set has as its target CLOCK:BMAL1 heterodimer (mouse, UniProt O08785;Q9WTL8). In words: native gel or EMSA.
A further data set deals with PER2 (mouse, UniProt O54943 1-1257). In words: co-IP.
Data set [1] has as its target T1, CLOCK (co-expressed with BMAL1);BMAL1 (Mus musculus;Mus musculus, UniProt O08785;Q9WTL8 1-855;1-632, |). Briefly: EMSA.
The target of data set [2] is T2, CLOCK (co-expressed with BMAL1);BMAL1;CRY1 (Mus musculus;Mus musculus;Mus musculus, UniProt O08785;Q9WTL8;P97784 1-855;1-632;1-606, ||). In words: EMSA supershift. (In general: In EMSA bound probe runs differently from free probe, usually more slowly.)
Data set [3] deals with T1, CLOCK (co-expressed with BMAL1);BMAL1. Briefly: EMSA. The source holds these as a separate data set.
Another data set addresses T3, CRY1 (Mus musculus, UniProt P97784 1-606).
T3 sequence: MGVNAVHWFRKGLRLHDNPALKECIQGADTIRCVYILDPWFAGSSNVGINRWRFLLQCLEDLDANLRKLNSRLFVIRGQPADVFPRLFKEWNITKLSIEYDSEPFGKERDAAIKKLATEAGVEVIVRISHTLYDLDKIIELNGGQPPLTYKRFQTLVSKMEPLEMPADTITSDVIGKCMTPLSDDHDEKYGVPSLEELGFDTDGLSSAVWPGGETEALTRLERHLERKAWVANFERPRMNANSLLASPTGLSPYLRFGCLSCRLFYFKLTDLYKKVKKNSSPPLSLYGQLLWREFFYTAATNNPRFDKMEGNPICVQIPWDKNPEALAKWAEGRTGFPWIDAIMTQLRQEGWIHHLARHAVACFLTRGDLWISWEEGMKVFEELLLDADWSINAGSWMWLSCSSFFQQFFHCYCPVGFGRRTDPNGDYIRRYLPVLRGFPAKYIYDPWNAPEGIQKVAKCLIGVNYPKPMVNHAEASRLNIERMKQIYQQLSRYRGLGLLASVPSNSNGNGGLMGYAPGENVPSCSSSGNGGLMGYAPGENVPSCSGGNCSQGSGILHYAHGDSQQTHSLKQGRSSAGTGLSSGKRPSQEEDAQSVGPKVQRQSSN
Briefly: EMSA.

In data set [4] the target is CLOCK (co-expressed with BMAL1);BMAL1;hCRY1 (Mus musculus;Mus musculus;Homo sapiens, UniProt O08785;Q9WTL8;Q16526 1-855;1-632;1-586, ||). In words: EMSA.
In another data set the target is BMAL1 (Mus musculus, UniProt Q9WTL8 1-632). In words: EMSA.
Data set [5] deals with CLOCK (co-expressed with BMAL1);BMAL1;CRY2 (Mus musculus;Mus musculus;Mus musculus, UniProt O08785;Q9WTL8;Q9R194 1-855;1-632;1-592, ||). Briefly: EMSA supershift.
The target in data set [6] is T2, CLOCK (co-expressed with …). In words: EMSA supershift. The source holds these as a separate data set.

Like-named read-outs stand apart in the source and are kept apart here.

Sequence of CLOCK:BMAL1 heterodimer (Q9WTL8 whole entry, one chain of several): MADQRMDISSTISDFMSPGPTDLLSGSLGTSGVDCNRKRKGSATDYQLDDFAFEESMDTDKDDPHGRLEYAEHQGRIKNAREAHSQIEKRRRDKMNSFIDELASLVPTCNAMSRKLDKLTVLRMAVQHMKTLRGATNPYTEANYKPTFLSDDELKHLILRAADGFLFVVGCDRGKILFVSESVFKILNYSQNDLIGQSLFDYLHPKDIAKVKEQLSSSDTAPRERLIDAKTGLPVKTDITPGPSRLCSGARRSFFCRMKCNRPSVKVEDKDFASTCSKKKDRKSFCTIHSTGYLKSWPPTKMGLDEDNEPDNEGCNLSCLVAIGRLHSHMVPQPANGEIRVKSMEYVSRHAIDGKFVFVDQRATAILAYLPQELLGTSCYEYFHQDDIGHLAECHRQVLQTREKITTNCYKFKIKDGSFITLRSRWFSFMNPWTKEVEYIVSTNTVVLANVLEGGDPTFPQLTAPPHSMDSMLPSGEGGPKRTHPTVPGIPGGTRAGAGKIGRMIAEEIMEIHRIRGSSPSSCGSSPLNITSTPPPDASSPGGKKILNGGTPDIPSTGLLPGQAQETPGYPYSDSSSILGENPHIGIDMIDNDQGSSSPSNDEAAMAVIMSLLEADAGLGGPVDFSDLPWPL
T2 sequence (Q9WTL8 whole entry, one chain of several): as above
T1 sequence (Q9WTL8 whole entry, one chain of several): as above
Sequence of CLOCK (co-expressed with BMAL1);BMAL1;hCRY1 (Q9WTL8 whole entry, one chain of several): as above
Sequence of BMAL1 (Q9WTL8 whole entry): as the sequence (Q9WTL8 whole entry, one chain of several) above
Sequence of CLOCK (co-expressed with BMAL1);BMAL1;CRY2 (Q9WTL8 whole entry, one chain of several): as above
Sequence of PER2 (O54943 whole entry): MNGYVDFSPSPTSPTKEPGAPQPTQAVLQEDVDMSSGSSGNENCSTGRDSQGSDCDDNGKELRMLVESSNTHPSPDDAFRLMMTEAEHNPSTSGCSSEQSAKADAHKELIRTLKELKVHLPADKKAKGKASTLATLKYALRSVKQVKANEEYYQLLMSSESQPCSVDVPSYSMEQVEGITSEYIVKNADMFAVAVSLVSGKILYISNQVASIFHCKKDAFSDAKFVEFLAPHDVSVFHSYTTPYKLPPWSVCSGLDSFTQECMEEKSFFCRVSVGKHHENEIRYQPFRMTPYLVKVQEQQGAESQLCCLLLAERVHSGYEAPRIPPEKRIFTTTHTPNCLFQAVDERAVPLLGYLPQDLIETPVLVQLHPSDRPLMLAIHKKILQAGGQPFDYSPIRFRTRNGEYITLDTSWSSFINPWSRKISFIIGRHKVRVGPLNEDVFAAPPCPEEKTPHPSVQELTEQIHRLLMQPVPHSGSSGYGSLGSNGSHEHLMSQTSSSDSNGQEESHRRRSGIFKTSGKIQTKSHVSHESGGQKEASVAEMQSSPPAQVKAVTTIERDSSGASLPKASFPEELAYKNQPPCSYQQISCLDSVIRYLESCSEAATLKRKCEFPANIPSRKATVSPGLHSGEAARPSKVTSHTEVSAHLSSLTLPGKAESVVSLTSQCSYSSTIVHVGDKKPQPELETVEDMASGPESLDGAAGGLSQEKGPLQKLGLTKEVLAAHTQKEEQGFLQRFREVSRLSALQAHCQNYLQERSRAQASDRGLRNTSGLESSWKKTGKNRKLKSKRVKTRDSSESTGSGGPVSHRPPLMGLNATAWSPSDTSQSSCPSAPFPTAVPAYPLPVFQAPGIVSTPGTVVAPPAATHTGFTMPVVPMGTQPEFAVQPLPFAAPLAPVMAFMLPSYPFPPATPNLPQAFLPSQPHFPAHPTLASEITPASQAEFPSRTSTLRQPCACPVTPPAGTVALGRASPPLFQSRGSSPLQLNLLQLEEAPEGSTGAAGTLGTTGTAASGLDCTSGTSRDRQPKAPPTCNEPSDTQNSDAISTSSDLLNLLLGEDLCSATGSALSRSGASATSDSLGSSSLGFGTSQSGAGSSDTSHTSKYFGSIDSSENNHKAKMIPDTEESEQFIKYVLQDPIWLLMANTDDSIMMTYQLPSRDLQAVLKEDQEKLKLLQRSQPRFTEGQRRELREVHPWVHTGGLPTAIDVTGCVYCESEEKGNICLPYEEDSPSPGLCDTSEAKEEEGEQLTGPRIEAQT

B1: CRY1 (natural protein)
chain: T3 sequence
Consider B1, for which the binding result with CLOCK:BMAL1 heterodimer is on record as “binds”.

B2: Myc-CRY1 (natural protein)
chain: T3 sequence
Regarding B2, in the data set with CLOCK:BMAL1 heterodimer, the binding result was “binds”.

B3: CLOCK (natural protein)
chain: MVFTVSCSKMSSIVDRDDSSIFDGLVEEDDKDKAKRVSRNKSEKKRRDQFNVLIKELGSMLPGNARKMDKSTVLQKSIDFLRKHKETTAQSDASEIRQDWKPTFLSNEEFTQLMLEALDGFFLAIMTDGSIIYVSESVTSLLEHLPSDLVDQSIFNFIPEGEHSEVYKILSTHLLESDSLTPEYLKSKNQLEFCCHMLRGTIDPKEPSTYEYVRFIGNFKSLTSVSTSTHNGFEGTIQRTHRPSYEDRVCFVATVRLATPQFIKEMCTVEEPNEEFTSRHSLEWKFLFLDHRAPPIIGYLPFEVLGTSGYDYYHVDDLENLAKCHEHLMQYGKGKSCYYRFLTKGQQWIWLQTHYYITYHQWNSRPEFIVCTHTVVSYAEVRAERRRELGIEESLPETAADKSQDSGSDNRINTVSLKEALERFDHSPTPSASSRSSRKSSHTAVSDPSSTPTKIPTDTSTPPRQHLPAHEKMTQRRSSFSSQSINSQSVGPSLTQPAMSQAANLPIPQGMSQFQFSAQLGAMQHLKDQLEQRTRMIEANIHRQQEELRKIQEQLQMVHGQGLQMFLQQSNPGLNFGSVQLSSGNSNIQQLTPVNMQGQVVPANQVQSGHISTGQHMIQQQTLQSTSTQQSQQSVMSGHSQQTSLPSQTPSTLTAPLYNTMVISQPAAGSMVQIPSSMPQNSTQSATVTTFTQDRQIRFSQGQQLVTKLVTAPVACGAVMVPSTMLMGQVVTAYPTFATQQQQAQTLSVTQQQQQQQQQPPQQQQQQQQSSQEQQLPSVQQPAQAQLGQPPQQFLQTSRLLHGNPSTQLILSAAFPLQQSTFPPSHHQQHQPQQQQQLPRHRTDSLTDPSKVQPQ
As to B3, in the data set with PER2, the binding result is recorded as “binds”.

B4: P2GS 60-bp duplex (dsDNA)
DNA 1: CATCACCCACTCACCCCTTAACGACACGTGGGCCCTCAATTGCCCTTCTCTCAGGATCTG
DNA 2: CAGATCCTGAGAGAAGGGCAATTGAGGGCCCACGTGTCGTTAAGGGGTGAGTGGGTGATG
With B4, the binding result in [1] and in data set [2] was “binds” in each case.

B5: CRY2 (natural protein)
chain: MAAAAVVAATVPAQSMGADGASSVHWFRKGLRLHDNPALLAAVRGARCVRCVYILDPWFAASSSVGINRWRFLLQSLEDLDTSLRKLNSRLFVVRGQPADVFPRLFKEWGVTRLTFEYDSEPFGKERDAAIMKMAKEAGVEVVTENSHTLYDLDRIIELNGQKPPLTYKRFQALISRMELPKKPAVAVSSQQMESCRAEIQENHDDTYGVPSLEELGFPTEGLGPAVWQGGETEALARLDKHLERKAWVANYERPRMNANSLLASPTGLSPYLRFGCLSCRLFYYRLWDLYKKVKRNSTPPLSLFGQLLWREFFYTAATNNPRFDRMEGNPICIQIPWDRNPEALAKWAEGKTGFPWIDAIMTQLRQEGWIHHLARHAVACFLTRGDLWVSWESGVRVFDELLLDADFSVNAGSWMWLSCSAFFQQFFHCYCPVGFGRRTDPSGDYIRRYLPKLKGFPSRYIYEPWNAPESVQKAAKCIIGVDYPRPIVNHAETSRLNIERMKQIYQQLSRYRGLCLLASVPSCVEDLSHPVAEPGSSQAGSISNTGPRALSSGPASPKRKLEAAEEPPGEELTKRARVTEMPTQEPASKDS
As for B5, in the data set with CLOCK:BMAL1 heterodimer, the binding result is “binds”.

B6: M34 (dsDNA)
DNA 1: GGGACACGTGACCC
DNA 2: GGGTCACGTGTCCC
For the molecule B6, the binding result in data set [3] is “binds”; with CRY1, “no binding”; in [4], “binds”; with BMAL1, “binds”; in data set [5], “binds”; in [6], “binds”.

B7: human CRY1 (natural protein)
chain: MGVNAVHWFRKGLRLHDNPALKECIQGADTIRCVYILDPWFAGSSNVGINRWRFLLQCLEDLDANLRKLNSRLFVIRGQPADVFPRLFKEWNITKLSIEYDSEPFGKERDAAIKKLATEAGVEVIVRISHTLYDLDKIIELNGGQPPLTYKRFQTLISKMEPLEIPVETITSEVIEKCTTPLSDDHDEKYGVPSLEELGFDTDGLSSAVWPGGETEALTRLERHLERKAWVANFERPRMNANSLLASPTGLSPYLRFGCLSCRLFYFKLTDLYKKVKKNSSPPLSLYGQLLWREFFYTAATNNPRFDKMEGNPICVQIPWDKNPEALAKWAEGRTGFPWIDAIMTQLRQEGWIHHLARHAVACFLTRGDLWISWEEGMKVFEELLLDADWSINAGSWMWLSCSSFFQQFFHCYCPVGFGRRTDPNGDYIRRYLPVLRGFPAKYIYDPWNAPEGIQKVAKCLIGVNYPKPMVNHAEASRLNIERMKQIYQQLSRYRGLGLLASVPSNPNGNGGFMGYSAENIPGCSSSGSCSQGSGILHYAHGDSQQTHLLKQGRSSMGTGLSGGKRPSQEEDTQSIGPKVQRQSTN
As to B7, the binding result in the data set with CLOCK:BMAL1 heterodimer is on record as “binds”.
